# ± gives the uncertainty stated by the source.
# B1: Zinc finger homeobox protein 3, residues 2147 to 2202; numbered along this chain, Q15911 (parent)
# chain: RPRTRITDDQLRVLRQYFDINNSPSEEQIKEMADKSGLPQKVIKHWFRNTLFKERQ
# Variants of: B1
# Experiment: abundance fitness (aPCA) (normalised: wild type 0, dead -1); higher = more abundant; growth selection in yeast, the domain comes from the species named
# Details: Homo sapiens
row,Variant,abundance fitness
1,RPRTEITDDQLRVLRQYFDINNSPSEEQIKEMADKSGLPQKVIKHWFRNTLFKERQ [R5E],0.155 ± 0.12
2,RPRTGITDDQLRVLRQYFDINNSPSEEQIKEMADKSGLPQKVIKHWFRNTLFKERQ [R5G],-0.023 ± 0.067
3,RPRTQITDDQLRVLRQYFDINNSPSEEQIKEMADKSGLPQKVIKHWFRNTLFKERQ [R5Q],-0.027 ± 0.1
4,RPRTDITDDQLRVLRQYFDINNSPSEEQIKEMADKSGLPQKVIKHWFRNTLFKERQ [R5D],0.235 ± 0.087
5,RPRTSITDDQLRVLRQYFDINNSPSEEQIKEMADKSGLPQKVIKHWFRNTLFKERQ [R5S],0.088 ± 0.065
6,RPRTMITDDQLRVLRQYFDINNSPSEEQIKEMADKSGLPQKVIKHWFRNTLFKERQ [R5M],0.138 ± 0.09
7,RPRTCITDDQLRVLRQYFDINNSPSEEQIKEMADKSGLPQKVIKHWFRNTLFKERQ [R5C],0.076 ± 0.093
8,RPRTLITDDQLRVLRQYFDINNSPSEEQIKEMADKSGLPQKVIKHWFRNTLFKERQ [R5L],0.143 ± 0.07
9,RPRTVITDDQLRVLRQYFDINNSPSEEQIKEMADKSGLPQKVIKHWFRNTLFKERQ [R5V],0.129 ± 0.07
10,RPRTNITDDQLRVLRQYFDINNSPSEEQIKEMADKSGLPQKVIKHWFRNTLFKERQ [R5N],0.201 ± 0.084
11,RPRTTITDDQLRVLRQYFDINNSPSEEQIKEMADKSGLPQKVIKHWFRNTLFKERQ [R5T],0.137 ± 0.068
12,RPRTKITDDQLRVLRQYFDINNSPSEEQIKEMADKSGLPQKVIKHWFRNTLFKERQ [R5K],0.093 ± 0.1
13,RPRTFITDDQLRVLRQYFDINNSPSEEQIKEMADKSGLPQKVIKHWFRNTLFKERQ [R5F],0.08 ± 0.083
14,RPRTAITDDQLRVLRQYFDINNSPSEEQIKEMADKSGLPQKVIKHWFRNTLFKERQ [R5A],-0.051 ± 0.076
15,RPRTIITDDQLRVLRQYFDINNSPSEEQIKEMADKSGLPQKVIKHWFRNTLFKERQ [R5I],0.148 ± 0.074
16,RPRTWITDDQLRVLRQYFDINNSPSEEQIKEMADKSGLPQKVIKHWFRNTLFKERQ [R5W],-0.054 ± 0.11
17,RPRTPITDDQLRVLRQYFDINNSPSEEQIKEMADKSGLPQKVIKHWFRNTLFKERQ [R5P],0.127 ± 0.084
18,RPRTHITDDQLRVLRQYFDINNSPSEEQIKEMADKSGLPQKVIKHWFRNTLFKERQ [R5H],0.074 ± 0.083
19,FPRTRITDDQLRVLRQYFDINNSPSEEQIKEMADKSGLPQKVIKHWFRNTLFKERQ [R1F],-0.385 ± 0.39
20,IPRTRITDDQLRVLRQYFDINNSPSEEQIKEMADKSGLPQKVIKHWFRNTLFKERQ [R1I],-0.433 ± 0.46
21,CPRTRITDDQLRVLRQYFDINNSPSEEQIKEMADKSGLPQKVIKHWFRNTLFKERQ [R1C],-0.134 ± 0.21
22,APRTRITDDQLRVLRQYFDINNSPSEEQIKEMADKSGLPQKVIKHWFRNTLFKERQ [R1A],-0.652 ± 0.41
23,EPRTRITDDQLRVLRQYFDINNSPSEEQIKEMADKSGLPQKVIKHWFRNTLFKERQ [R1E],-0.832 ± 0.21
24,LPRTRITDDQLRVLRQYFDINNSPSEEQIKEMADKSGLPQKVIKHWFRNTLFKERQ [R1L],-0.303 ± 0.17

row,Variant,abundance fitness
1,YPRTRITDDQLRVLRQYFDINNSPSEEQIKEMADKSGLPQKVIKHWFRNTLFKERQ [R1Y],0.022 ± 0.28
2,MPRTRITDDQLRVLRQYFDINNSPSEEQIKEMADKSGLPQKVIKHWFRNTLFKERQ [R1M],-0.573 ± 0.2
3,NPRTRITDDQLRVLRQYFDINNSPSEEQIKEMADKSGLPQKVIKHWFRNTLFKERQ [R1N],0.078 ± 0.32
4,SPRTRITDDQLRVLRQYFDINNSPSEEQIKEMADKSGLPQKVIKHWFRNTLFKERQ [R1S],-0.399 ± 0.14
5,PPRTRITDDQLRVLRQYFDINNSPSEEQIKEMADKSGLPQKVIKHWFRNTLFKERQ [R1P],-0.165 ± 0.26
6,WPRTRITDDQLRVLRQYFDINNSPSEEQIKEMADKSGLPQKVIKHWFRNTLFKERQ [R1W],-0.979 ± 0.18
7,GPRTRITDDQLRVLRQYFDINNSPSEEQIKEMADKSGLPQKVIKHWFRNTLFKERQ [R1G],-0.247 ± 0.091
8,TPRTRITDDQLRVLRQYFDINNSPSEEQIKEMADKSGLPQKVIKHWFRNTLFKERQ [R1T],-0.271 ± 0.16
9,RPRSRITDDQLRVLRQYFDINNSPSEEQIKEMADKSGLPQKVIKHWFRNTLFKERQ [T4S],-0.191 ± 0.095
10,RPRYRITDDQLRVLRQYFDINNSPSEEQIKEMADKSGLPQKVIKHWFRNTLFKERQ [T4Y],-0.005 ± 0.2
11,RPRGRITDDQLRVLRQYFDINNSPSEEQIKEMADKSGLPQKVIKHWFRNTLFKERQ [T4G],-0.256 ± 0.083
12,RPRFRITDDQLRVLRQYFDINNSPSEEQIKEMADKSGLPQKVIKHWFRNTLFKERQ [T4F],0.125 ± 0.14
13,RPRDRITDDQLRVLRQYFDINNSPSEEQIKEMADKSGLPQKVIKHWFRNTLFKERQ [T4D],0.029 ± 0.14
14,RPRVRITDDQLRVLRQYFDINNSPSEEQIKEMADKSGLPQKVIKHWFRNTLFKERQ [T4V],-0.13 ± 0.089
15,RPRIRITDDQLRVLRQYFDINNSPSEEQIKEMADKSGLPQKVIKHWFRNTLFKERQ [T4I],-0.02 ± 0.16
16,RPRNRITDDQLRVLRQYFDINNSPSEEQIKEMADKSGLPQKVIKHWFRNTLFKERQ [T4N],0.134 ± 0.19
17,RPRWRITDDQLRVLRQYFDINNSPSEEQIKEMADKSGLPQKVIKHWFRNTLFKERQ [T4W],-1.13 ± 0.16
18,RPRLRITDDQLRVLRQYFDINNSPSEEQIKEMADKSGLPQKVIKHWFRNTLFKERQ [T4L],-0.11 ± 0.094
19,RPRKRITDDQLRVLRQYFDINNSPSEEQIKEMADKSGLPQKVIKHWFRNTLFKERQ [T4K],-0.16 ± 0.12
20,RPRHRITDDQLRVLRQYFDINNSPSEEQIKEMADKSGLPQKVIKHWFRNTLFKERQ [T4H],-0.549 ± 0.36
21,RPRMRITDDQLRVLRQYFDINNSPSEEQIKEMADKSGLPQKVIKHWFRNTLFKERQ [T4M],0.13 ± 0.12
22,RPRRRITDDQLRVLRQYFDINNSPSEEQIKEMADKSGLPQKVIKHWFRNTLFKERQ [T4R],-0.393 ± 0.086
23,RPRPRITDDQLRVLRQYFDINNSPSEEQIKEMADKSGLPQKVIKHWFRNTLFKERQ [T4P],-0.159 ± 0.13

# Reference: the Human Domainome abundance scans (Beltran et al. 2025)
